Measurements reported in the nanobody polyreactivity screen of Harvey et al. (2022).

Assay: yeast display, Sf9 membrane polyspecificity reagent, FACS + sequencing; frameworks hold sequencing errors
Outline: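 Sorting gates, low and high (top ~1%), were placed on anti-HA fluorescence to track expression and on streptavidin fluorescence to track reagent binding. A clone's polyreactivity label is taken from the gate it came out of. The reagent was 10% biotinylated, detergent-solubilized Sf9 membrane, applied for 1 hour at 4 °C to galactose-induced yeast display cells.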

Sequence	polyreactivity (PSR sort gate)
QVQLVESGGGLVQAGGSLSLSCAASGFTFEKNAMGWYRQAPGKERELVAAITSGGSTYYADSVKGRFTISRDNAKNTVYLQMNSLKPEDTAVYYCNAYYTYRFNYWGQGTQVTVSS	high polyreactivity
QVQLVESGGGIDQAGGSLRLRCAASGFIFRYYAMGWYRLAPGKESELVAVISASGGSTYYADSVKGRFTISRDNAKKTVYLQMNSRKPEDTAVYYCNTKRYFFHRGDMDYWGQGTQVTVSS	high polyreactivity
QVQLVESGGGLVQAGGSLRLSCAASGITFGPNAMGWYRQAPGKERELVAAISWRGGSTYYADSVKGRFTISRDYAKNTVYLQMNSLKPEDTAVYYCAKVQIPASYIRYDYWGQGTQVTVSS	low polyreactivity
QVQLVDSGGGLVPSGGSLRISCAASGRIFYPYAMGWYRQAPGKEREVVATITRTGSTYYADSVKGRFTISRDNAMNTVYLQMNSLKPEDTAVYYCNAGIYRPRVDYWGQGTQVTVSS	high polyreactivity
QVQLVESGGGLVQAGGSLRLSCAASGRIFASNAMGWYRQAPGKERELVAAITTTGGSTYYADSVKGRFTISRDNAKNTVYLQMNSLKPEDTAVYYCAARAIPRVRRYGSMNYWGQGTQVTVSS	high polyreactivity
QVQLVESGGGLVQAGGSLRLSCAASGRTFSVYAMGWYRQAPGKERELVAVISYRDGTTYYADSVKGRFTISRDNAKNTVYLQMNSLKPEDTAVYYCAADFFSDFDWGQGTQVTVSS	low polyreactivity
QVQLVESGLGLVQAGGSLRLSCAASGSIFNIYAMGWYRQAPGKERELVAAITTGTRTYADSVKGLFTISRDNAKNTVYLLMNSLKPEDTAVDYCAAVSPTYPNTFYRYNYWGQGTQVTVSS	low polyreactivity
QVQLVESGGGLVQAGGSLRLSCAASGRTFWVYAMGWYRQAPGKERELVAAIRRGGITNYADSVKGRFTISRDNAKNTVYLQMNSLKPEDTAVYSCATDNYGYLTRYYYWGQGTQVTVSS	low polyreactivity
QVQLVESGGGLVQAGGSLRLSCAASGFIFTDYAMGWYRQAPGKERELVAAISSGGRTYYADSVKGRFTISRDNAKNTVYLQMNSLKPEDTAVYYCARGGRAEGWGQGTQVTVSS	high polyreactivity
QVQLVESGGGLVQAGGSLLLSCAASGFTFWSYAMAWYRQAPRKERELVADISWSGGSTHYADSVKGRFTISRDNAKNTVYLQMNSLKPEDTAVYYCARRFLYPYDHWGQGTQVTVSS	high polyreactivity
QVQLVESGGGLVQAGGSLRLSCAASGLIFGRYAMGWYRQAPGKERELVAAITGRGGSTYYADSVKGRFTISRDNAKNTVYLQMNSLKPEDTAVYYCNKVYNPKSYIQYDYWGQGTQVTVSS	high polyreactivity
QVQLVESGGGLVQAGGSLRLSCAASGRIFSGNGMGWYRQAPGKEREFVAAIRFSSGSTYYADSVKGRFTISRDNAKNTVYLQMNSLKPEDTAVYYCARPSIPRRYDYWGQGTQVTVSS	high polyreactivity
QVQIVESGGGLVQAGGSLRLSCDASGSILLWNTMGWYRQAPGKERELVADSSLSASSTYYADSVKGRFTISRDNAQNTVYLELNSLKPEDTAVYFCAADEYSPDYGQGYDYWGEGTQVTVSS	low polyreactivity
QVQLVESGGGLVQAGGSLRLSCAASGSIFWYAMGWYRQAPGKETELVAAISRGGSTYYADSVKGRFTISRDNAKNTVFLEMYRLKPEDTAVYYCATAYRYPRNAYFQRMDSWGQGTQVTVSS	high polyreactivity
QVQLVESGGRLVQAGGSLLLSCAASGFTFDDYAMGRYRQAPGTERELVASITTSGASKYYADSVKGRFTISRDNAKNPVYLQMNSLKPEDTAVYYCAVDNDSYTSPRAGDDYWGQGTQVTVSS	low polyreactivity
QVQLVESGGGLLQAGGSLRLSCAASGFTFRNYAMGWYRQAPGKEREFVAAITGRGGSTYYADSVKGRFTISRDNAKNTVYLQMNSLKPEDTAVYYCNAYSGVSFYSSWYGYWGQGTQVTVSS	high polyreactivity
QVQLVESGGGLVQAGGSLRLSCGASGSTFWWNAMGWYRQAPGKEREFVAAITARGTSTYYADSVKGRFTISRDNAKNTVYLQMNRLKPEDTAVYYCNTRLYGRYYSWYDYWGQGTQVTVSS	high polyreactivity
QVQLVESGGGIVQAGGSLRLSCAASGSTGFNTMGWYRQAPGKERELVAAIRATGGSTYYADSVKGRFTISRDNAKNTVYLQMNSLKPEDTAVYYCAAKWFRQYLRQDRYYYWGQGTQVTVSS	high polyreactivity
QVQLVESGGGLVQAGGSLRLSCAASGSIFTRNAMGWYRQAPGKERELVADISRRGVSTYYADSVKGRFTISRDNAKNTVYLQMNSLKPEDTAVYYCNKLSSYVVARRTTEYDYWGQGTQVTVSS	high polyreactivity
QVQLVESGGGLVQAGGSLRLSCAASGGTFNHYAMGWYRQAPGKERELVASITNGASTYYADSVKGRFTISRDNAKNTVYLQMNSLKPEDTAVYYCAKRGRVGKYRYEYWGQGTQVTVSS	low polyreactivity
QVQVVESGGGLVQAGGSLRLSCAASGFIFSFYAMGWYRQAPGKERELVAAINWSGGSTYYADSVKGRFTISRDNAKNTVYLQMNSLKPEDTAVYYCNAVQYFSIPKPVWLFVLRYYYWGQVTQVTVSS	low polyreactivity
QVQLVESGGGLVQAGGSLRLSCAASGMIFPGNTMGWYRQAPGKERELVAAITNGVSTNYADSVKGRFTISRDNAKNTVYLQMNSLKPEDTAVYYCNGPFNYVGGYSNYSGFVYWGQGTQVTVSS	high polyreactivity

Sequence	polyreactivity (PSR sort gate)
QVQLVESGGGLVQAGGRLRLSCAASGSTFYLNAMGWYRQAPGKERELVAAISSGGRTYYADSVKGRFTISRDNAKNTVYLQMTSLKPEDTAVYYCNAVRYLRGAYNYWGQGTQVTVSS	high polyreactivity
QVQLVESGGGLVQAGGSLRLSCAASGFTFRRYAMGWYRQAPGKERELVAAITYSGTRTYYADSVKGRFTISRDIAKNTVYLEMNSLSPEDTAVYYCNAGVGYFVGTYYGFLPYDYWGQGTQVTVSS	high polyreactivity
QVQLVESGGGLVQAGGSLSLICAASGGTFERYAMGWYRQAPGKERELVAAISRSGGRTYYADSVKGRFTISRDNAKNSVYLQMNSLKPEDTAVYYCNSLGRYRMDYWGQGTQVTVSS	high polyreactivity
QVQLVESGGGLVQAGGSLRLSCAASGFIFRYYAMGWYRQEPGKERELFAAISSTGGSTSYADSVKGRFTISRDNAKNTVYLQMNSLKPEDTAVYYCAADYWIRRRTYGQLYRPYYYWGQGTQVTVSS	high polyreactivity
QDQLVESGGCLVQAGGSLRLSCAASGSTFDTNSMGWSRQAPGKERELVAAISGSGVRTYYADSVKGRFSISRDNAKITVYLQMNRLNPEDTAVYYCAARGSRRGTWYDYWGQCTQVTVSS	high polyreactivity
QVQLVESGGGLVQARGSLRLSCAASGSILDYYVMGWYRQAPGKERELVAAIRGGGSTYYADSVKGRFTISRDNAKNTVYLQMNSLKPEDTAVYYCAKDSQTARDFDYWGQGTQVTVSS	low polyreactivity
QVQLVESGGGLVQAGGSLRLSCAASGSTFAPNAMGWYRQAPGKERELVAVIDSGDGTTYYADSVKGRFTISRDNAKNTVYLQMNSLKPEDTAVYYCAVDESTSYYDDHEDYWGQGTQVTVSS	low polyreactivity
QVQLVESGGGLVQAGGSLRLSCAASGLIFSTNDMGWYRQAPGKERELVAAITSDVSTYYADSVKGRFTISRDNAKNTVYLQMNSLEPEDTAVYYCAKDDSGYINWRYDYWGQGTQVTVSS	low polyreactivity
QVQLVESGGGLVQAGGSLRLSCAASGYTFASYDMGWYRQAPGKERELVAAIDWSGGSTYYADSVKGRFTISRDNAKNTVYLQMNSLKPEDTAVYYCAAERPWTYGSDGMDFWGQGTQVTVSS	low polyreactivity
QVQLVESGGRKVQAGGSLRLSCAASGSTIWPYAMGCYRQAPAKERELVAAISNGGGTKYADSVKGRFTISRDNAKNTVYLQMNSLKPEHTAVYYCAKTLWTGRAWYDYWGQGTQVTVSS	high polyreactivity
QVQLVESGGGLVQAGGSLRLSCAASGFIFWQYAMGWYRQAPGKERELVAAISGRGGRTYYADSVKGRFTISRDNAKNTVYLQMNSLKPEDTAVYYCNKVGPLVGGVKYYYWGQGTQVTVSS	high polyreactivity
QVQLVESGGGLVQAGGSLRLSCAASGRILYYYAMGWSRQAPGKERELVAGITTDDSTNYADSVKGRFTISRDNAKNTVYLQMNSLKPEDTAVYYCAAKYVHGEYDYWGQGTQVTVSS	low polyreactivity
QVQLVESGGGLVQAVGSLRLSCDASGSTFYPYAIGWYRQAPAKESELVARITRGVGSTYYADSVKGRFTISRDNAKNTVYLQMNSLIPEDTAVYYCNRVEYFTVWGYDYWGQGTQVTVSS	low polyreactivity
QVQLVESGGGLVQAGGSLRLSCAPSGRTFPYYAIGSYRQAPGKERELVARITGSGTSTYYADSVKGRFTISRDNAKNTVYLQMNSLKPEDTAVYYCAAPKYGSYYIADYEYWGQGTQVTVSS	low polyreactivity
QVQLVESGGGLVQAGGSLRLSCAASGITFHANAMGWNRQARGKERELVPAINWSGGSTYYADSVKGRFTISRDNAKNTVYLQMNSLKPEDTAVYYCAAELWGLFDYWGQGTQVTVSS	low polyreactivity
QVQLVESGGGLVQAGGSLRLSCAASGSTSRLNAMGWYRQAPGKERELVAAISGSGGRTYYADSVKGRFTISRDTAKTTVYLQMNSQKPEDTAVYYCNAAYSAKVHPEMYYWGPGTQVTVSS	high polyreactivity
QVQLVESGGGLVQAGGSLRLSCAASGFTFAYNAMGWYRQAPGKERELVAAISWSGGTTYYADSVKGRFTISRDNAKNTVYLQMNSLKPEDTAVYYCAKRGIGYATSWRGSDYWGQGTQVTVSS	high polyreactivity
QVQLEESGAGLVQAGGRHRLSCPASGFIFDWNAMGWYRQPPGKERELVAAISDDGDSTDYADSVKGRFTISRDNAKNTVYLQMNSLKPEDTAVYSCAANTERVYPCFSFGYWGQGTQVTVSS	low polyreactivity
QVQIVESGGGLVQAGGSLRLSCGASGLSFYYYAMGWYRQAPGKERELVASISTGGNTYYADSVKGRFTISRVNAKNTVYLQMNSLNPEDTAVYYCAAGLYSWSGYASYNSAYGYWGQGTQVTVSS	low polyreactivity
QVQLVESGGGLVQAGGSLRLSCAASGSTFGVYTMGWYRQAPGKERELVAAITKSGGSTYYADSVKGRFTISRDNAKNTVYLQMNSLKPEDTAVYYCAADATSPLTWFDYWGQGTQVTVSS	low polyreactivity
QVQLVESGGGLVQAGGSLRLSCAASGRIFRDYAMGAYRPAPGKERELGATITRSGGRTYYADSVKGRFTISRDNAKNTVYLQMNSLKPEDTAVYYCAARWRIVSGRFDYWGQGTQVTVSS	high polyreactivity
